Changes are numbered by the printed parent chain.
B1: 2092D3 (antibody, V domains shown)
VH: QSVEESGGRLVTPGTPLTLTCTVSGFSLSSYTMSWVRQAPGKGLEWIGVISGSDTLSYATWAKGRFTISKTSTTVDLKITSPTTADTATYFCARDGGYSDYDHAPNIWGPGTLVTVSL
VL: DVVMTQTPASVEAAVGGTVTIKCQASQSIYNYLAWYQQKPGQPPKLLIYQASKVASGVPSRFKGRGSGTQFTLTISDLECADAATYYCQWSFYDSNYIGAFGGGTEVVVK
notes: made as rabbit IgG; source: produced and purified as rabbit IgG by Sino Biological
B2: 2101A3 (antibody, V domains shown)
VH: QSLEESGGGLVKPGGTLTLTCKASGFDLSSYYYMCWVRQAPGKGLEWIACTYISSGSTWYASWAKGRFTVSKPSSTTVTLQMTSLTAADTATYFCAREVGSPEYGYYLDLWGPGTLVTVSS
VL: DVVMTQTPASVEAAVGGTVTIKCQASQSISSWLSWYQQKPGQPPKLLIYQASKLASGVPSRFKGSGCGTEYTLTISDLECADGATYYCQTYYGSGSSNYHAFGGGTEVVVK
notes: as for B1
B3: 2101D12 (antibody, V domains shown)
VH: QQLEESGGGLVKPGGTLTLTCKASGWDFSSSYWISWVRQAPGKGLEWIAYINTDSLKTYYATWAKGRFTVSKTSSTTVTLQVTSLTAADTATYFCADGAFWGPGTLVTVSS
VL: DVVMTQTPASVSAAVGGTVTINCQASQSINSWLSWYQQKPGQPPKRLINDASTLESGVPSRFKGSGCGTQFTLTISDLECADAATYYCQSHYFSRSIDYYNAFGGGTEVVVK
notes: as for B1
B4: 2091E9 (antibody, V domains shown)
VH: QSVEESGGRLVTPGGSLTLTCTVSGFSLSSYVMTWVRQAPGKGLEWIGYIYIDGYTTWYASWVKGRFTISRTSTTVDLKMTSLSTEDTATYFCVRVGATIDFMMRRLDLWGQGTLVTVSS
VL: DVVMTQTPSSVSAAVRGTVTIKCQASPSVYSDYLSWYQQKPGQRPKLLMYGTSTLASGVPSRFKGSGSGTQFTLTISDVQCDDAATYYCAGGFNSGADSFAFGGGTEVVVQ
notes: as for B1
B5: 2092E3 (antibody, V domains shown)
VH: B1 VH with F26I, S27D, T32A, S51G, G52D, S53M, T55I, L56V, R94G
VL: DVVMTQTPASVEAAVGGTVTIKCHASESIYDYLAWYQQKPGQPPKLLISKASTLASGVPSGFKASGSGTLFTLTISDLECADAATYYCQWSFYDHYYVGAFGGGTEVVVK
notes: as for B1
B6: 2101B3 (antibody, V domains shown)
VH: QSLEESGGDLVKPGASLTLTCTASGLDFSGYYYICWVRQAPGKGLEWIGCIWPGDGDTDYASWAKGRFTVSKTSSTTVDLKVTTLTAADTATYFCGRLLGSGSAYFNLWGPGTLVTVSS
VL: AVVMTQTPSSVSEAVGGTVTIKCQASQTIGEALAWYQQKPGQPPKLLIYKASTVASGVPWRFKGSGCGSEYTLTISGVQCEDAATYYCQQGYSLTIIDNLFGGGTEVVVE
notes: as for B1
B7: 2131F4 (antibody, V domains shown)
VH: QSVEESGGDLVKPEGSLTLTCTASEFSFNTNHYVCWVRQAPGKGLEWLACVAGGGSGATYYATWAKGRFTLSRTSSSTVTLEMTSLAPADTATYFCARVDSTDFNFDLWGPGTLVTVSS
VL: DPVMTQTPSPVSAAVGGTVSISCQSSQIVYNDNWLSWYQQKPGQPPKRLIYGTSNSASGVPSRFKGSGCGTQFTLTISDVQCDDAATYYCQGGYLVGDVYVFGGGTEVVVK
notes: as for B1

Molecular target: T1, Tp0751_(24–237) (Treponema pallidum subsp. pallidum, …, UniProt O83732)
T1 construct: The biotinylated, streptavidin-tetramerised form was used only to stain and sort B cells, not in BLI or ELISA; also called soluble Tp0751_(24–237); mature Tp0751 protein
T1 sequence (O83732 24-237): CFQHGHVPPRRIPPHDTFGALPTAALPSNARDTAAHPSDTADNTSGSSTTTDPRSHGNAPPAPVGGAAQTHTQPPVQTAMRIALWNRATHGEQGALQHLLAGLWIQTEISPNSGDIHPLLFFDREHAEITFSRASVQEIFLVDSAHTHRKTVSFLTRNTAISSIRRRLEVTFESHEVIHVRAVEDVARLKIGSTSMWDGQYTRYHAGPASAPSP
Experiment: ELISA; titration: plates coated with 15 pmol/well Tp0751_(24–237) in 1xTBS pH 7.4; 0.2 pM-33 nM rabbit antibodies serially diluted in 4 % skim milk in TBS, 1 h at room temperature; anti-rabbit IgG-HRP
Conditions: both partners purified

Binder	binding result
B1	binds
B2	binds
B3	binds

Molecular target: T1, Tp0751_(24–237)
Experiment: BLI; OctetRed, room temperature, shaking at 500 RPM; 40 μg/mL antibody loaded on Protein A capture biosensors; 0.1, 0.7 or 6 μM Tp0751_(24–237) in solution, 5 min association, 5 min dissociation in kinetics buffer
Conditions: both partners purified

Binder	binding result
B4	binds

Molecular target: T2, Tp0751_(115–237) (Treponema pallidum subsp. pallidum, …, UniProt O83732)
T2 construct: Tp0751 of Treponema pallidum, amino acids 115-237 (N-terminal truncation; lipocalin structural fold); also called Tp0751 lipocalin structural/functional domain
T2 sequence (O83732 115-237): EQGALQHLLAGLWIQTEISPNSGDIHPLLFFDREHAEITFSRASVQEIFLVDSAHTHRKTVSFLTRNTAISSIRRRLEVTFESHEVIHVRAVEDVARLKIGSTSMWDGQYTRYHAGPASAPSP
Experiment: ELISA; epitope mapping: 33pM of antibody on plate-coated Tp0751_(24–237), Tp0751_(99–237) or Tp0751_(115–237)
Conditions: both partners purified

Binder	binding result
B4	binds
B1	no binding (tested: 33pM of antibody)
B2	no binding (tested: 33pM of antibody)
B3	binds
B5	no binding (tested: 33pM of antibody)
B6	binds
B7	no binding (tested: 33pM of antibody)

Molecular target: T3, Tp0751_(99–237) (Treponema pallidum subsp. pallidum, …, UniProt O83732)
T3 construct: Tp0751 of Treponema pallidum, amino acids 99-237 (N-terminal truncation; alpha helix cap 99-114 and lipocalin domain 115-237)
T3 sequence (O83732 99-237): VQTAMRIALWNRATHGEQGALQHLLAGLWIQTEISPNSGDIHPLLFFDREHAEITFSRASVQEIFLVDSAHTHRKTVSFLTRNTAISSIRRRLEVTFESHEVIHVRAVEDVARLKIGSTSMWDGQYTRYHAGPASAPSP
Experiment: as above
Conditions: both partners purified

Binder	binding result
B1	binds
B2	binds
B3	binds
B5	binds
B6	binds
B7	no binding (tested: 33pM of antibody)

Molecular target: T1, Tp0751_(24–237)
Experiment: as above
Conditions: both partners purified

Binder	binding result
B5	binds
B6	binds
B7	binds

— publication PMC12431793, “Identification of antibodies induced by immunization with the syphilis vaccine candidate Tp0751” (Vaccine, 2025)
